According to patent US20130273026A1, “COMPOSITION AND METHOD FOR MODULATING INFLAMMATORY MOLECULES WITH AMYLASE” (INTEGRATIVE ENZYMATICS, INC., priority 2012, published 2013):
Structures can show the parent of a compound that is named as a salt.

Columns and labels:
[1] = system: BKS.Cg-Dock7m mice; test: Urine Protein Urea/Creatinine ratio; assay type: in vivo; conditions: for Nephroprotective effect: from Protein Urea to Creatinine ratio
Procedure: (§1) BKS.Cg-Dock7m mice were treated with control and an Amylase compound according to an embodiment of the present invention. In the absence of treatment, the BKS.Cg-Dock7m mice are homozygous for the diabetes spontaneous mutation (Lepr^db) and become obese at approximately three to four weeks of age. […] At the beginning of the animal trial, the test animals were obese, severely hyperinsulemic and hyperglycemic. After 28 consecutive days of dosing, the animals were euthanized and tissue analyzed. Compounds described herein were tested against the positive control of Metformin hydrochloride (“Metformin”)
(§2) 1× (used synonymously with TV1) and 3× (used synonymously with TV2) doses of human alpha-Amylase enzyme (referred to herein as Test Compound 1) were determined to be 80 Units/Liter of blood volume and 240 Units/Liter of blood volume respectively. Animals were manually restrained and administered a target volume of 300 μL of phosphate buffered saline (PBS) (vehicle), by IP injection, once per day, on Days 1-28. Actual dose volumes changed throughout the study and ranged from 300 to 310 μL. Endpoints include daily clinical observations and body weights. Creatinine, insulin, Protein Urea/Creatinine levels, clinical pathology and gross pathology at necropsy were also obtained. The mice were euthanized and necropsied on Day 28.
Referring now to FIG. 11, Protein Urea/Creatinine Levels are measured and shown. Creatinine levels are directly related to muscle mass in mice and so higher Creatinine is correlated with higher muscle mass. A healthy Protein Urea to Creatinine level is 1. Higher levels imply kidney damage. […] Optimal Protein Urea: Creatinine is 1.

[2] = system: BKS.Cg-Dock7m mice; test: Body weight loss in diabetic obese mice; assay type: in vivo
Procedure: as §1
(§3) Animals were manually restrained and administered Metformin by oral gavage using a disposable gavage needle. The target dose was 5 mL/kg, and actual dose volumes ranged from 190 to 260 μL/animal.
(§4) Amylase was purchased from Abcam (product ID: ab77861) at a dilution of 340 Units/mL. Each animal was treated with Amylase to achieve a dilution of 80 Units/L of blood. The test compound was diluted in phosphate buffer saline (PBS) and each day the test animals were injected with 300 uL of the Amylase-PBS solution. For every 299.4 uL of PBS, 0.6 uL of Amylase was used to achieve a concentration of 80 Units/Liter assuming a body weight of 45 g. The aliquots were stored at −80 C.
Amylase was purchased from Abcam (product ID: ab77861) at a dilution of 340 Units/mL. Each animal was treated with Amylase to achieve a dilution of 240 Units/L of blood. The test compound was diluted in phosphate buffer saline (PBS) and each day the test animals were injected with 300 uL of the Amylase-PBS solution. For every 298.3 uL of PBS, 1.7 uL of Amylase was used to achieve a concentration of […] assuming a body weight of 45 g. The aliquots were stored at −80 degrees C.
as §2
Body weights were measured prior to the study for randomization. Additional weekly body weights were collected throughout the study. We also were interested in weight loss for the animals for various treatment regimens. Referring now to Table 1 weight loss data as a percent weight loss with the reference being the weight before any treatment is illustrated for each test group. […] As with the insulin data, there is a dose dependent trend between 1× and 3×. The higher dose of Test Compound 1 outperforms metformin.

[3] = system: BKS.Cg-Dock7m mice; test: Serum insulin ELISA in diabetic obese mice after 28 days of dosing; assay type: in vivo; conditions: for Serum insulin levels compared to vehicle control: at necropsy after 28 consecutive days, Test Compound 1 at 1× or 3× IP, Metformin oral gavage
Procedure: as §1, §3, §4
Amylase was purchased from Abcam (product ID: ab77861) at a dilution of 340 Units/mL. Each animal was treated with Amylase to achieve a dilution of 240 Units/L of blood. […]
1× (used synonymously with TV1) and 3× (used synonymously with TV2) doses of human alpha-Amylase enzyme (referred to herein as Test Compound 1) were determined to be 80 Units/Liter of blood volume and 240 Units/Liter of blood volume respectively. […]
Referring now to FIG. 9, insulin values were measured in serum from four animals from each treatment group at the time of necropsy following 28 consecutive days of dosing with Control (metformin), Test Compound 1 (SEQ ID NO 1), or vehicle alone. […] The processed plates were read using a Molecular Devices VersaMax plate reader.

[4] = system: Mast cells; test: Histamine ELISA of IgE/anti-IgE-induced mast cell degranulation; assay type: cell-based; conditions: for Histamine release (ELISA): 1× (100 Units/L) and 10× (1000 Units/L) Amylase, IgE + anti-IgE
Procedure: Referring now to FIG. 1, Mast cells were treated with IgE, anti-IgE and varying doses of alpha-Amylase in a medium that would permit binding. In this experiment, Mast cells were grown to confluence, harvested and resuspended in 8 ml PBS and a 3 ml aliquot was plated in triplicate. 0.29 ml (100 Units) of Amylase was added to 0.7 mL PBS bringing the total volume to 1 mL. 3 μL was used in the 1× Amylase dose and 30 μL was used in the 10× Amylase dose. 1 set of triplicates was incubated with 1× Amylase (100 Units/L) and the second set with 10× Amylase (1000 Units/L). After 10 minutes, 250 μL of IgE was added, and then 200 μL of anti-IgE. The cells were incubated at 37 degrees Celsius during this time. 50 μL was taken at 1 hour, 2.5 hours and 4 hours and subjected to histamine level analysis via ELISA. A control set was co-incubated with PBS.
Anti-IgE when added to IgE-incubated Mast cells causes degranulation. Histamine release occurs during degranulation. Measurements were taken from all three subsets at 1 hour, 2.5 hours and 4 hours and subjected to analysis of histamine levels by ELISA from Oxford Biolabs. FIG. 1 is a graph of the results of an ELISA in which histamine levels are measured. Higher absorbance rates correlate to lower levels of Histamine.
Degranulation based upon the Immunoglobulin-E (IgE)-Anti-IgE reaction is well documented in the literature. Histamine levels were detected by an ELISA kit and served as a marker for degranulation. […] This implies that cellular degranulation was prevented in a time and dose-dependent manner by the addition of Amylase.

[5] = system: BKS.Cg-Dock7m mice; test: Urine creatinine vs percentage of total weight loss; assay type: in vivo; conditions: 1× dose
Procedure: as §1
1× (used synonymously with TV1) and 3× (used synonymously with TV2) doses of human alpha-Amylase enzyme (referred to herein as Test Compound 1) were determined to be 80 Units/Liter of blood volume and 240 Units/Liter of blood volume respectively. Animals were manually restrained and administered a target volume of 300 μL of phosphate buffered saline (PBS) (vehicle), by IP injection, once per day, on Days 1-28. Actual dose volumes changed throughout the study and ranged from 300 to 310 μL. Endpoints include daily clinical observations and body weights. […]
The source of the weight loss, (whether fat or muscle) is physiologically critical. […] Referring now to FIG. 10, to quantify the source of the weight loss, we examined urine creatinine levels in the test animals. […]

[6] = system: IgE; test: Co-immunoprecipitation of Amylase and IgE; assay type: binding
Procedure: Referring now to FIG. 3, an immunoblot is shown having samples in lanes 1-8. The samples are prepared as follows. 10 μg of Amylase was mixed with 1 μg of IgE and incubated overnight at 4° C. and then for one hour at 37° C. Anti-Amylase antibody was used for immunoprecipitation. Anti-IgE antibody was used for immunoblotting. BSA was used as a competitive binding control. A sample with no IgE and […] of BSA+10 microgram of Amylase (lane 2) was used as negative control for immunoblotting. (Lanes 3 and 4 represent 0.5 μg BSA, lanes 5 and 6 represent 0.5 μg BSA and lanes 7 and 8 represent 0.05 μg BSA). After immunoprecipitation, pellets were dissolved in 45 microliters of Laemmli sample buffer and 15 microliters were loaded on the gel. 1 microgram of IgE was used as positive control (lane 1).
Referring now to FIG. 2, an immunoblot is shown having samples in lanes 1-8. The samples are prepared as follows.

[7] = Metformin positive control, oral gavage
[8] = 1X dose (80 Units/Liter of blood volume) IP daily
[9] = 3X dose (240 Units/Liter of blood volume) IP daily

## CN(C)C(=N)N=C(N)N [Metformin, Metformin hydrochloride, reference compound]
[1]
  Nephroprotective effect: nephroprotective
[2]; [7]
  Body Weight % Lost, % Weight loss n = 4: 7%
  Body Weight % Lost, % Weight loss n = 6: 6.9%
  Body Weight % Lost, % Weight loss raw: 7.4%
[3]
  Serum insulin levels compared to vehicle control: moderate decreases in serum insulin levels compared to vehicle control animals

B1: Test Compound 1: human alpha-Amylase enzyme (SEQ ID NO 1, pancreatic Amylase alpha 2A), purchased from Abcam (product ID: ab77861) (protein)
chain: QYSPNTQQGRTSIVHLFEWRWVDIALECERYLAPKGFGGVQVSPPNENVAIYNPFRPWWERYQPVSYKLCTRSGNEDEFRNMVTRCNNVGVRIYVDAVINHMCGNAVSAGTSSTCGSYFNPGSRDFPAVPYSGWDFNDGKCKTGSGDIENYNDATQVRDCRLTGLLDLALEKDYVRSKIAEYMNHLIDIGVAGFRLDASKHMWPGDIKAILDKLHNLNSNWFPAGSKPFIYQEVIDLGGEPIKSSDYFGNGRVTEFKYGAKLGTVIRKWNGEKMSYLKNWGEGWGFVPSDRALVFVDNHDNQRGHGAGGASILTFWDARLYKMAVGFMLAHPYGFTRVMSSYRWPRQFQNGNDVNDWVGPPNNNGVIKEVTINPDTTCGNDWVCEHRWRQIRNMVIFRNVVDGQPFTNWYDNGSNQVAFGRGNRGFIVFNNDDWSFSLTLQTGLPAGTYCDVISGDKINGNCTGIKIYVSDDGKAHFSISNSAEDPFIAIHAESKL
modifications: homo sapien
[1]
  Nephroprotective effect: nephroprotective
[1]; treatment group 2 (1× dose) vs group 4 (metformin) and group 1 (vehicle)
  Protein Urea to Creatinine ratio in urine: lower Protein Urea to Creatinine ratio compared to urine from animals in treatment group 4 or animals in treatment group 1
[2]; [8]
  Body Weight % Lost, % Weight loss n = 4: 5%
  Body Weight % Lost, % Weight loss n = 6: 5.2%
  Body Weight % Lost, % Weight loss raw: 5.5%
[2]; 1× and 3× doses
  Weight loss compared with metformin: dose-dependency in weight loss with our 1× of Test Compound 1 and 3× of Test Compound 1 doses outperforming metformin
[2]; [9]
  Body Weight % Lost, % Weight loss n = 4: 10%
  Body Weight % Lost, % Weight loss n = 6: 8.3%
  Body Weight % Lost, % Weight loss raw: 7.4%
[4]; 1 hour, vs PBS control
  Histamine release (ELISA): the levels of Histamine released in the 1× and 10× doses were the same, with higher release in the negative control
[4]; 2.5 hours
  Histamine release (ELISA): dose dependency with less histamine release compared to 1 hour
[4]; 4 hours
  Histamine release (ELISA): greater histamine release in the 1× and 10× doses
[4]; overall, samples treated with Amylase, 1 to 4 hours, 1× and 10×
  Histamine levels as marker for degranulation: lower in a manner that was both time and dose dependent
[5]
  Source of the weight loss (fat or muscle) from urine creatinine: the majority of weight lost is fat content and muscle mass is preserved
[6]; 1 μg IgE + 0.5, 5, 10 μg Amylase, anti-IgE immunoprecipitation, anti-Amylase immunoblot
  Amylase co-immunoprecipitation with IgE: binding of Amylase and IgE was observed to behave in a dose-dependent manner
[6]; 10 μg Amylase + 1 μg IgE, anti-Amylase immunoprecipitation, anti-IgE immunoblot, BSA as competitive binding control
  IgE co-immunoprecipitation with Amylase: IgE immunoprecipitated with Amylase under conditions of increasing concentrations of BSA, demonstrating little non-specific binding
[3]; Treatment Group 3: 3× dose (240 Units/liter of blood volume) IP, 28 days
  Change in insulin levels: did exhibit a change in insulin levels
[3]
  Serum insulin levels compared to vehicle control: moderate decreases in serum insulin levels compared to vehicle control animals
